Test results reported in article PMC2932750 (Biochemistry, 2010).
Where no end group is shown, it is not given here.

B1: Ala-4 peptide (YSA-12mer with alanine at position 4) (peptide)
chain: YSAAPDSVPMMS
modifications: C-terminal amide if made in house
B2: SWLA-C-11mer (peptide)
chain: SWLAYPDSVPC
modifications: free C-terminal cysteine thiol; C-terminal amide if made in house
B3: YSAF-12mer (peptide)
chain: YSAFPDSVPMMS
modifications: C-terminal amide if made in house
B4: SWLA-13mer (peptide)
chain: SWLAYPDSVPMMS
modifications: C-terminal amide if made in house
B5: YSS-12mer (peptide)
chain: YSSYPDSVPMMS
modifications: C-terminal amide if made in house
B6: YSA-C-10mer (monomeric) (peptide)
chain: YSAYPDSVPC
modifications: free C-terminal cysteine thiol; C-terminal amide if made in house
B7: dimerized YSA-C-10mer (peptide)
chain: YSAYPDSVPC
modifications: also: homodimer, disulfide between C-terminal cysteines of the two chains
B8: SWLA-10mer (peptide)
chain: SWLAYPDSVP
modifications: C-terminal amide if made in house

biological target: T1, EphA2 ligand-binding domain fused to human Fc (EphA2 Fc) (UniProt P29317 24-537); test: ELISA
T1 sequence (P29317 24-537): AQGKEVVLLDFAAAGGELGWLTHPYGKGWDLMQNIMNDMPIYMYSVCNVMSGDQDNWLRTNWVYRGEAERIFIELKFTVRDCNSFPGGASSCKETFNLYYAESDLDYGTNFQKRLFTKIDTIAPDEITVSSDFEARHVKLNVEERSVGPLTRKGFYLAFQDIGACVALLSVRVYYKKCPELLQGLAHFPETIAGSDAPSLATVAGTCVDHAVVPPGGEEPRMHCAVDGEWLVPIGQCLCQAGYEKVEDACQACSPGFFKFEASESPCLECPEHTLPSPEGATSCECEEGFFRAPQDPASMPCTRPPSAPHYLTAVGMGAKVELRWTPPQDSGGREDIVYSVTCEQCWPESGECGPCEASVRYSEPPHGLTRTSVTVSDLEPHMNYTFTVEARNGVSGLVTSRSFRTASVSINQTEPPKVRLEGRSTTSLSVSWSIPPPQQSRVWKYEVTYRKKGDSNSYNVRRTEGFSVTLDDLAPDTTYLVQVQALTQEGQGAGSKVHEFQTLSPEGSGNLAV

For B1, the IC50 was over 100 µM.

biological target: T1, EphA2 ligand-binding domain fused to …; test: ELISA; remark: another data set of the same source

Going from B2 to B3, the IC50 rises from 3.7 µM to 47 µM (13-fold).

Compared with B4, B5 is higher in IC50: 6.5 µM for the first, over 100 µM for the second. The first is the more potent here.

Compared with B6, B7 is 2.9-fold lower in IC50: 5.2 µM for the first, 1.8 µM for the second.

Binder B8 has an IC50 of 39 µM.
